B1: bacteriophage T4 gene product 32 (gp32) (natural protein)
chain: MFKRKSTAELAAQMAKLNGNKGFSSEDKGEWKLKLDNAGNGQAVIRFLPSKNDEQAPFAILVNHGFKKNGKWYIETCSSTHGDYDSCPVCQYISKNDLYNTDNKEYSLVKRKTSYWANILVVKDPAAPENEGKVFKYRFGKKIWDKINAMIAVDVEMGETPVDVTCPWEGANFVLKVKQVSGFSNYDESKFLNQSAIPNIDDESFQKELFEQMVDLSEMTSKDKFKSFEELNTKFGQVMGTAVMGGAAATAAKKADKVADDLDAFNVDDFNTKTEDDFMSSSSGSSSSADDTDLDDLLNDLC
modifications: disulfur monoxide moiety at Cys302 (C-terminal, attributed to the intein reaction)
B2: gp32-ΔCTD (amino acids 1-254) (domain or fragment, bacteriophage T4, UniProt P03695 1-254, looked up)
chain: MFKRKSTAELAAQMAKLNGNKGFSSEDKGEWKLKLDNAGNGQAVIRFLPSKNDEQAPFAILVNHGFKKNGKWYIETCSSTHGDYDSCPVCQYISKNDLYNTDNKEYSLVKRKTSYWANILVVKDPAAPENEGKVFKYRFGKKIWDKINAMIAVDVEMGETPVDVTCPWEGANFVLKVKQVSGFSNYDESKFLNQSAIPNIDDESFQKELFEQMVDLSEMTSKDKFKSFEELNTKFGQVMGTAVMGGAAATAAKK

Biological target: the molecule itself
Assay: native MS

| Protein | stoichiometry N |
| --- | --- |
| B1 | 2 |
| B2 | 2 |

Source: article PMC8549804 (Chemical Science, 2021)
